From the supplement of paper PMC10126150
± gives the standard deviation of the averaged measurements.

Test system: ATP
Test: switch fluorescence ratio, 500 uM ATP over buffer (Cy3 cluster intensity, sum of 5 cycles each) (fold (ratio)); higher = stronger signal-on switching upon ATP binding; sequences stand for … in TCGTCGGCAGCGTCAGATGTGTATAAGAGACAGTTTTTTTTTTTTTTTTTTTTTTTTT…TC
Conditions: aptamer strand: ATP DNA aptamer (quencher-CACCTGGGGGAGTATTGCGGAGGAAGG + anchor), 100 nM annealed; ATP concentration: 500 uM
Outline: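 Switching-strand clusters labelled with Cy3 on a modified Illumina MiSeq flow-cell were annealed to 100 nM quencher-labelled ATP aptamer, imaged in selection buffer, and re-imaged after 15 min with 500 uM ATP at 22 °C. This was done over five cycles with NaOH stripping and re-annealing in between. The fluorescence ratio is summed target-cycle over summed buffer-cycle Cy3 intensity per cluster, averaged per switch-domain sequence, excluding clusters outside 100-1000 RFU.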
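Also: ATP exposure 15 min at 22 °C before imaging.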

For TGGTGCAATC, the switch fluorescence ratio was 2.36 ± 0.86.
TGGTGCAGCT showed a switch fluorescence ratio of 1.005 ± 0.0059.
In the case of TGGTGCCCAC, the switch fluorescence ratio is reported as 1.01 ± 0.027.
Sequence TGGTGCGGCG has a switch fluorescence ratio of 1.09 ± 0.031.
TGGTGCTGTT showed a switch fluorescence ratio of 0.985 ± 0.03.
Work on TGGTGGAGGG yielded a switch fluorescence ratio of 1 ± 0.032.
TGGTGGCACG was tested, and the switch fluorescence ratio was 0.965 ± 0.011.
TGGTGGCCCT showed a switch fluorescence ratio of 1.01 ± 0.06.
TGGTGGGGTA gave a switch fluorescence ratio of 0.998 ± 0.022.
TGGTGGGTCG was tested, and the switch fluorescence ratio was 1.08 ± 0.069.
With TGGTGGTGGG the switch fluorescence ratio was 1.02 ± 0.018.
With TGGTGGTTCT the switch fluorescence ratio was 0.987 ± 0.029.
Work on TGGTGTATGG yielded a switch fluorescence ratio of 1.01 ± 0.035.
With TGGTGTGGAA the switch fluorescence ratio was 0.9806 ± 0.0027.
In the case of TGGTGTGGGT, the switch fluorescence ratio is reported as 0.989 ± 0.014.
Work on TGGTGTGTAC yielded a switch fluorescence ratio of 1.06 ± 0.076.
With TGGTGTTTGC the switch fluorescence ratio was 1 ± 0.038.
TGGTGTTTT showed a switch fluorescence ratio of 0.998 ± 0.024.
Sequence TGGTTAACAG has a switch fluorescence ratio of 0.999 ± 0.022.
TGGTTAAGAT showed a switch fluorescence ratio of 0.999 ± 0.038.
Sequence TGGTTATCTT has a switch fluorescence ratio of 0.969 ± 0.011.
TGGTTATGAA gave a switch fluorescence ratio of 0.998 ± 0.03.
With TGGTTATGGC the switch fluorescence ratio was 0.923 ± 0.082.
In the case of TGGTTATGGT, the switch fluorescence ratio is reported as 0.992 ± 0.037.
TGGTTCATCG showed a switch fluorescence ratio of 0.97771 ± 0.00071.
Sequence TGGTTCGTCT has a switch fluorescence ratio of 0.955 ± 0.058.
Work on TGGTTCTGTT yielded a switch fluorescence ratio of 0.975 ± 0.018.
TGGTTGAACG gave a switch fluorescence ratio of 0.996 ± 0.019.
Work on TGGTTGAGGC yielded a switch fluorescence ratio of 1.01 ± 0.021.
TGGTTGATAG gave a switch fluorescence ratio of 0.9916 ± 0.0065.
TGGTTGCCTG showed a switch fluorescence ratio of 0.993 ± 0.056.
TGGTTGCTTG showed a switch fluorescence ratio of 1.01 ± 0.034.
Work on TGGTTGGAAG yielded a switch fluorescence ratio of 0.987 ± 0.016.
TGGTTGGCTC gave a switch fluorescence ratio of 0.985 ± 0.042.
For TGGTTGGGTA, the switch fluorescence ratio was 0.997 ± 0.018.
In the case of TGGTTGTTAG, the switch fluorescence ratio is reported as 1.012 ± 0.0073.
With TGGTTTACTA the switch fluorescence ratio was 1.009 ± 0.0096.
TGGTTTATAC was tested, and the switch fluorescence ratio was 1.32 ± 0.43.
With TGGTTTATGG the switch fluorescence ratio was 1.01 ± 0.02.
Work on TGGTTTATTT yielded a switch fluorescence ratio of 0.976 ± 0.01.
Work on TGGTTTCTTG yielded a switch fluorescence ratio of 0.963 ± 0.042.
For TGGTTTGGCC, the switch fluorescence ratio was 0.97 ± 0.018.
In the case of TGGTTTGGTT, the switch fluorescence ratio is reported as 0.986 ± 0.04.
TGGTTTGTGT was tested, and the switch fluorescence ratio was 0.981 ± 0.018.
TGGTTTTAAT showed a switch fluorescence ratio of 0.973 ± 0.028.
For TGGTTTTAGA, the switch fluorescence ratio was 0.999 ± 0.016.
Sequence TGGTTTTAGG has a switch fluorescence ratio of 0.99 ± 0.029.
With TGGTTTTCGG the switch fluorescence ratio was 0.993 ± 0.041.
In the case of TGGTTTTCTT, the switch fluorescence ratio is reported as 0.992 ± 0.03.
TGGTTTTGGT was tested, and the switch fluorescence ratio was 0.987 ± 0.025.
For TGGTTTTGT, the switch fluorescence ratio was 1.03 ± 0.066.
Work on TGGTTTTTAG yielded a switch fluorescence ratio of 1.05 ± 0.033.
In the case of TGTAACTCAT, the switch fluorescence ratio is reported as 1 ± 0.011.
In the case of TGTAAGACCA, the switch fluorescence ratio is reported as 1.01 ± 0.012.
For TGTAAGGAAC, the switch fluorescence ratio was 1.26 ± 0.35.
Sequence TGTAAGGATG has a switch fluorescence ratio of 0.996 ± 0.013.
In the case of TGTAAGGGTG, the switch fluorescence ratio is reported as 0.974 ± 0.065.
With TGTAATATGG the switch fluorescence ratio was 1.1 ± 0.14.
TGTAATCCGC gave a switch fluorescence ratio of 1.28 ± 0.021.
TGTAATGTGA showed a switch fluorescence ratio of 1.07 ± 0.14.
Sequence TGTACGTTGG has a switch fluorescence ratio of 1.26 ± 0.37.
Sequence TGTACTTTGG has a switch fluorescence ratio of 1.01 ± 0.022.
With TGTAGCGGGG the switch fluorescence ratio was 0.9942 ± 0.0048.
TGTAGGAGGG was tested, and the switch fluorescence ratio was 0.993 ± 0.01.
TGTAGGAGTG gave a switch fluorescence ratio of 1.25 ± 0.36.
With TGTAGGGAGG the switch fluorescence ratio was 0.966 ± 0.053.
Work on TGTAGGGGGG yielded a switch fluorescence ratio of 0.973 ± 0.034.
TGTAGGGTAG gave a switch fluorescence ratio of 0.958 ± 0.017.
With TGTAGGGTGC the switch fluorescence ratio was 1.07 ± 0.044.
Sequence TGTAGTCCGT has a switch fluorescence ratio of 0.982 ± 0.0055.
Work on TGTAGTGAGT yielded a switch fluorescence ratio of 0.959 ± 0.037.
TGTAGTGTTT gave a switch fluorescence ratio of 1.03 ± 0.044.
Sequence TGTATAAATT has a switch fluorescence ratio of 0.9679 ± 0.0048.
Work on TGTATAATGT yielded a switch fluorescence ratio of 0.985 ± 0.029.
With TGTATCATGT the switch fluorescence ratio was 0.99 ± 0.037.
For TGTATGAGCA, the switch fluorescence ratio was 1.02 ± 0.011.
TGTATGGGAA gave a switch fluorescence ratio of 0.9352 ± 0.0043.
Sequence TGTATTAAAG has a switch fluorescence ratio of 0.983 ± 0.029.
TGTATTTAGA gave a switch fluorescence ratio of 1.02 ± 0.032.
Sequence TGTATTTGGG has a switch fluorescence ratio of 0.991 ± 0.013.
TGTATTTTTT was tested, and the switch fluorescence ratio was 1.05 ± 0.093.
TGTCAATTGG was tested, and the switch fluorescence ratio was 0.984 ± 0.021.
With TGTCAGAAAT the switch fluorescence ratio was 0.992 ± 0.02.
TGTCCTAGAG gave a switch fluorescence ratio of 1.02 ± 0.024.
With TGTCCTCAGC the switch fluorescence ratio was 1.51 ± 0.14.
